Assay results: patent publication US20210388068A1 (UNIVERSITY OF MASSACHUSETTS, published 2021)

Key:
[1] = target: T1, N-terminal adhesin domain of CfaE fused to maltose-binding protein (MBP-CfaE-N) (enterotoxigenic Escherichia coli (ETEC), UniProt P25734 23-200); assay: ELISA on plate-bound MBP-CfaE-N, anti-human IgG Fc-AP, OD405
T1 construct: domain: N-terminal adhesin domain; expressed in SHuffle T7 E. coli and purified on amylose resin; also called recombinant CfaE-N; wild-type CfaE; not shown: donor strand complement included as in Poole et al. 2007
T1 sequence (looked up): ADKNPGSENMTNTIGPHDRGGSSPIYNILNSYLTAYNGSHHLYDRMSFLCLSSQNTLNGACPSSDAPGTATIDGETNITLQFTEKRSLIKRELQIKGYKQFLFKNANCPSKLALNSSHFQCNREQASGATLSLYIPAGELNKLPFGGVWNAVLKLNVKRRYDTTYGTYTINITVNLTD
Description: FIG. 1A is a graph showing concentration-dependent binding of anti-CfaE antibodies as measured by ELISA. IgG bound to immobilized recombinant CfaE-N was detected with an anti-human IgG Fc-chain-specific alkaline phosphatase-conjugated antibody. Error bars represent the range in OD values observed in two independent experiments. The binding curves of the ten anti-CfaE antibodies are superimposed.
(§1) For binding activity of purified HuMAbs against CfaE, 96-well plates (Nunc) were coated overnight at 4° C. with 2 μg/mL of purified MBP-CfaE-N. Plates were blocked with 1% BSA+0.05% Tween 20 in PBS. Purified HuMabs were diluted in 1×PBS+0.1% Tween 20 and added to plates for 1 hour. Plates were stained with alkaline phosphatase-conjugated goat anti-human IgG Fcγ (Jackson ImmunoResearch Laboratories) (1:1,000) for 1 hour and developed using p-nitrophenyl phosphate (ThermoFisher Scientific).

[2] = target: T1, N-terminal adhesin domain of CfaE fused …; assay: ELISA on plate-bound wild-type MBP-CfaE-N, OD405
Description: as §1
To define the antibody-binding epitope, putative antibody-antigen interaction models were established based on a previously resolved CfaE structure (PDB ID 2Hb0) and the HuMab antibody sequences using an antibody modeling program, BioLuminate (Schrodinger). This software suite develops models of antibody structures from their sequences, followed by computational docking to identify high-confidence antibody-antigen complex models. Based on these models, the software identified potential residues critical for binding interaction. The effect of these residues on the binding activity of the HuMAbs was analyzed by experimental alanine scanning followed by ELISA. […] The R67A mutation eliminated binding activity of HuMab 68-51 and 68-97 (FIG. 3B), while the Y183A mutation affected binding activity of HuMab 68-51, 68-97, 68-90, 67-102, and 840-53 (FIG. 3E). […] T91A mutation eliminated binding activity of HuMAb 840-53 and reduced binding activities of HuMAbs 68-51, 68-61, 840-53 and 68-48 (FIG. 3C). N127A mutation eliminated binding activity of HuMAb 68-61 and reduced binding of HuMAbs 68-48 and 68-6 (FIG. 3F). All mutations were found on the surface exposed loops of the N-terminal domain of the CfaE (FIG. 3G). No residues involved in the binding of MAb 68-75 to CfaE were identified.

[3] = target: T2, MBP-CfaE-N Tyr183Ala mutant (enterotoxigenic Escherichia coli); assay: ELISA on plate-bound MBP-CfaE-N Tyr183Ala mutant, OD405
T2 construct: tag;N-terminal adhesin domain; not in the list MOLECULES; also called Y183A
Description: as §1
To define the antibody-binding epitope, putative antibody-antigen interaction models were established based on a previously resolved CfaE structure (PDB ID 2Hb0) and the HuMab antibody sequences using an antibody modeling program, BioLuminate (Schrodinger). This software suite develops models of antibody structures from their sequences, followed by computational docking to identify high-confidence antibody-antigen complex models. Based on these models, the software identified potential residues critical for binding interaction. The effect of these residues on the binding activity of the HuMAbs was analyzed by experimental alanine scanning followed by ELISA. […] The R67A mutation eliminated binding activity of HuMab 68-51 and 68-97 (FIG. 3B), while the Y183A mutation affected binding activity of HuMab 68-51, 68-97, 68-90, 67-102, and 840-53 (FIG. 3E). […]

B1: anti-CfaE HuMab 68-90 (antibody, human IgG1, V domains shown)
VH: QVQLQQWGAGLLKPSETLSLTCAVYGGSFSAYYWSWIRQPPGKGLEWIGEINHSGNTNYNPSLESRVTISVDTSKNQVSLKQSSVTAADTAVYYCARNWGPNAFDIWGRGTMVTVSS
VL: DIQMTQSPSSVSASVGDRVTITCRASQDITSWLVWYQHKPGKAPKLLIYAASSLQSGVPSRFSGSGSGTDFTLTISSLQPEDFATYYCQQANIFPYTFGQGTKLEIK
notes: also called 068-90
Question: Which results are given for B1?
Answer: EC50 (read off the curve) [1]: ~0.03 µg/mL; EC50 (read off the curve) [2]: ~0.03 µg/mL

B2: anti-CfaE HuMab 68-61 (antibody, human IgG1, V domains shown)
VH: QVQLVQSGAEVKNPGSSVRVSCEASGGTFSSFAISWVRQAPGQGLEWMGRIIPILDIVKYAQRFQGRVTISADKSTSTAYMELSSLRSEGTAVYYCARDDIAGSDFDIWGQGTMVTVSS
VL: DIQMTQSPSSLSASVGDRVTITCRASQGISSWLAWYQQKPEKAPKSLIYAASSLQSGVPSRFSGSGSGTDFTLTISSLQPEDFATYYCQQYTSYPYTFGQGTKLEIK
notes: also called 068-61
Question: Which results are given for B2?
Answer: EC50 (read off the curve) [1]: ~0.03 µg/mL; EC50 (read off the curve) [2]: ~0.03 µg/mL; EC50 (read off the curve) [3]: ~0.01 µg/mL

B3: anti-CfaE HuMab 68-48 (antibody, human IgG1, V domains shown)
VH: QVQLQQWGAGLLKPSETLSLTCAVYGGSFSGYSWSWIRQSPGKGLEWIGEIYHSGSTNYNPSLKSRVTISGDTSKNQFSLKLSSVTAADTAVYYCARENLQGYYYYGMDVWGQGTTVTVSS
VL: AIQLTQSPSSLSASVGDRVTITCRASQGISSSLAWYQQKPGKAPKLLIYDASSLESGVPSRFSGSGSGTDFTLTISSLQPEDFATYYCQQFNSYPRTFGQGTKVEIK
notes: also called 068-48
Question: B3 was tested. Which “EC50 (read off the curve)” value [1] did it give?
Answer: ~0.03 µg/mL

Question: What about the “EC50 (read off the curve)” value [2] of the same binder?
Answer: ~0.03 µg/mL

Question: And the “EC50 (read off the curve)” value [3]?
Answer: ~0.01 µg/mL
